Assays:
[1] = tested on: Oc1ccccc1O; experiment: purified protein; conditions: 50 mM Tris-HCl pH 7.5, 37 °C, 20 min, catechol 0-200 µM, substrate O2 from air
[2] = biological target: Catechol 1,2-dioxygenase from Paracoccus sp. MKU1 (Paracoccus sp. MKU1); experiment: SEC; purified C12O on Sephacryl S-300 HR, 50 mM Tris-HCl pH 8.5, 1 ml/min, A280; calibrated with NativeMark standards (20-1,236 kDa)

| stoichiometry N [2] | Substance | Km [1] [µM] | kcat [1] [s⁻¹] |
| --- | --- | --- | --- |
|  | Catechol 1,2-dioxygenase (C12O) (Paracoccus sp. MKU1) | 12.89 | 199.5 |
| 3 | Catechol 1,2-dioxygenase from Paracoccus sp. MKU1 (enzyme) |  |  |

Reference: publication PMC8591083, “Catechol 1,2-Dioxygenase From Paracoccus sp. MKU1—A Greener and Cleaner Bio-Machinery for cis, cis-Muconic Acid Production by Recombinant E. coli” (Frontiers in Bioengineering and Biotechnology, 2021)
